Results taken from patent WO2012132067A1 (dated 2012).
One block for each binder: values may come before it.

What was measured:
human FcRn = target: T1, human FcRn (human, UniProt P55899 24-290; P61769 21-119, limits assumed); assay: SPR (Biacore), antibody held on immobilised human FcRn, FcγR injected, pH 7.4, 25 C
T1 construct: also called hFcRn

human FcγRIa [1] = target: T2, human FcγRIa (human, UniProt P12314 16-292, limits assumed); assay: as above
T2 construct: also called hFcgRI; hFcγRIa

human FcγRIIb = target: T3, human FcγRIIb (human, UniProt P31994 43-217, limits assumed); assay: as above
T3 construct: also called hFcgRIIb
T3 sequence: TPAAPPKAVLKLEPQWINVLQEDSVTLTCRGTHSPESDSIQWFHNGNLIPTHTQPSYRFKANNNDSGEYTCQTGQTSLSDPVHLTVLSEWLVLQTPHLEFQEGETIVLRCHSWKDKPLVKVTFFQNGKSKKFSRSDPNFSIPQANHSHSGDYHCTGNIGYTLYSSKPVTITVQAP

mouse FcγRI = target: T4, mouse FcγRI (mouse, UniProt P26151 25-297); assay: as above
T4 sequence (looked up): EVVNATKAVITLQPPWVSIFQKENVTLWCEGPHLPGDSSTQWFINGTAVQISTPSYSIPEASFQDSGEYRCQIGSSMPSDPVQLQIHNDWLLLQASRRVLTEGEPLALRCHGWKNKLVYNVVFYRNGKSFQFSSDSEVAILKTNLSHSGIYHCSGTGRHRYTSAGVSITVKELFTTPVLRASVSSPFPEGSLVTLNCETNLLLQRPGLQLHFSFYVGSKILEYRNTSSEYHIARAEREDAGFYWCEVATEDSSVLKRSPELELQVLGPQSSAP

mouse FcγRIIb [2] = target: T5, mouse FcγRIIb (mouse, UniProt P08101 30-210, limits assumed); assay: as above
T5 sequence (looked up): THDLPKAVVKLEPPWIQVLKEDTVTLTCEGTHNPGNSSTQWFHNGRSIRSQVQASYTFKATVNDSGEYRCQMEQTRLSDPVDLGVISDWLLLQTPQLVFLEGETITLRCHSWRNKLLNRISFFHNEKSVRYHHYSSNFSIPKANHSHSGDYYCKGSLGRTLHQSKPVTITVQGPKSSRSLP

mouse FcγRIII [3] = target: T6, mouse FcγRIII (mouse, UniProt P08508 31-215); assay: as above
T6 sequence (looked up): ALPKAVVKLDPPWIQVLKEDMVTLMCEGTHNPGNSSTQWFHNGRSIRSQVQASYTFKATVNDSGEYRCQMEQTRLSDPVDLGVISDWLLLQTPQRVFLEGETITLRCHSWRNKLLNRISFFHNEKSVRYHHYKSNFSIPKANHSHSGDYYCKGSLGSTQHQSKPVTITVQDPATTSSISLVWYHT

human FcγRIa [4] = target: T2, human FcγRIa; assay: Biacore, Protein L capture, human FcγR injected, pH 7.4, 25 C (Table 13 not given)
mouse FcγRIIb [5] = target: T5, mouse FcγRIIb; assay: Biacore, Protein L capture, mouse FcγR injected, pH 7.4, 25 C (Table 7 not given); weaker than F21
mouse FcγRIII [6] = target: T6, mouse FcγRIII; assay: as above
mouse FcγRIIb [7] = target: T5, mouse FcγRIIb; assay: Biacore, Protein L capture, mouse FcγR injected, pH 7.4, 25 C (Table 7 not given); weaker than F157

T2 sequence (P12314 16-292 limits assumed): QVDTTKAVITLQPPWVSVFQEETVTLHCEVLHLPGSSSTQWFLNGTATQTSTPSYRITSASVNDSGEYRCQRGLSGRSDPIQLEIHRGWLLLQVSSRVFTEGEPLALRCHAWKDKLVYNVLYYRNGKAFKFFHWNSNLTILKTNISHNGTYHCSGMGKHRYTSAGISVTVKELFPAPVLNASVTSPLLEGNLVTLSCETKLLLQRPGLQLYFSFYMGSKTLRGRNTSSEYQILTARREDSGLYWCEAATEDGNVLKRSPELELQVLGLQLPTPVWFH

binding result (human FcRn): binds
binding result (human FcγRIa [1]): binds
binding result (human FcγRIIb): binds
binding result (mouse FcγRI): binds
binding result (mouse FcγRIIb [2]): binds
binding result (mouse FcγRIII [3]): binds
B1: Fv4-IgG1-F157 (antibody)
heavy: QVQLQESGPGLVKPSETLSLTCAVSGHSISHDHAWSWVRQPPGEGLEWIGFISYSGITNYNPSLQGRVTISRDNSKNTLYLQMNSLRAEDTAVYYCARSLARTTAMDYWGEGTLVTVSSASTKGPSVFPLAPSSKSTSGGTAALGCLVKDYFPEPVTVSWNSGALTSGVHTFPAVLQSSGLYSLSSVVTVPSSSLGTQTYICNVNHKPSNTKVDKKVEPKSCDKTHTCPPCPAPELLGGPSVFLFPPKPKDTLMISRTAEVTCVVVDVSHEDPEVKFNWYVDGVEVHNAKTKPREEQYNSTYRVVSVLTPLHQDWLNGKEYKCKVSNKALPAPIEKTISKAKGQPREPQVYTLPPSRDELTKNQVSLTCLVKGFYPSDIAVEWESNGQPENNYKTTPPVLDSDGSFFLYSKLTVDKSRWQQGNVFSCSVLHEALHYHYTQKSLSLSP
light: DIQMTQSPSSLSASVGDSVTITCQASTDISSHLNWYQQKPGKAPELLIYYGSHLLSGVPSRFSGSGSGTDFTFTISSLEAEDAATYYCGQGNRLPYTFGQGTKVEIERTVAAPSVFIFPPSDEQLKSGTASVVCLLNNFYPREAKVQWKVDNALQSGNSQESVTEQDSKDSTYSLSSTLTLSKADYEKHKVYACEVTHQGLSSPVTKSFNRGEC
notes: VH3-IgG1-F157 with VL3-CK; copies: 2 + 2

binding result (human FcγRIa [4]): binds
binding result (mouse FcγRIIb [5]): binds
binding result (mouse FcγRIII [6]): binds
B2: VH3/L(WT)-IgG1-F140 (antibody)
heavy: QVQLQESGPGLVKPSETLSLTCAVSGHSISHDHAWSWVRQPPGEGLEWIGFISYSGITNYNPSLQGRVTISRDNSKNTLYLQMNSLRAEDTAVYYCARSLARTTAMDYWGEGTLVTVSSASTKGPSVFPLAPSSKSTSGGTAALGCLVKDYFPEPVTVSWNSGALTSGVHTFPAVLQSSGLYSLSSVVTVPSSSLGTQTYICNVNHKPSNTKVDKKVEPKSCDKTHTCPPCPAPELLGGPKVFLFPPKPKDTLYISRTPEVTCVVVDVSHEDPEVKFNWYVDGVEVHNAKTKPREEQYNSTYRVVSVLTPLHQDWLNGKEYKCKVSNKALPAPIEKTISKAKGQPREPQVYTLPPSRDELTKNQVSLTCLVKGFYPSDIAVEWESNGQPENNYKTTPPVLDSDGSFFLYSKLTVDKSRWQQGNVFSCSVMHEALHYHYTQKSLSLSP
light: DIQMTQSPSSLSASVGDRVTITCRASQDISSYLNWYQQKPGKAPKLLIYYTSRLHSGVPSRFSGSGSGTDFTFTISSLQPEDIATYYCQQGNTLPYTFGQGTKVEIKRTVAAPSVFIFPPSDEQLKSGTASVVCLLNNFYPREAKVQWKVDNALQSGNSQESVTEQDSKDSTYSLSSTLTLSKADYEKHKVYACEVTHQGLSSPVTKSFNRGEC
notes: VH3-IgG1-F21 with S239K (EU); measured with L(WT)-CK; also called Fv4-IgG1-F140; copies: 2 + 2

binding result (mouse FcγRIIb [7]): binds
B3: VH3/L(WT)-IgG1-F424 (antibody)
heavy: QVQLQESGPGLVKPSETLSLTCAVSGHSISHDHAWSWVRQPPGEGLEWIGFISYSGITNYNPSLQGRVTISRDNSKNTLYLQMNSLRAEDTAVYYCARSLARTTAMDYWGEGTLVTVSSASTKGPSVFPLAPSSKSTSGGTAALGCLVKDYFPEPVTVSWNSGALTSGVHTFPAVLQSSGLYSLSSVVTVPSSSLGTQTYICNVNHKPSNTKVDKKVEPKSCDKTHTCPPCPAPELLGGPKVFLFPPKPKDTLMISRTAEVTCVVVDVSHEDPEVKFNWYVDGVEVHNAKTKPREEQYNSTYRVVSVLTPLHQDWLNGKEYKCKVSNKALPAPIEKTISKAKGQPREPQVYTLPPSRDELTKNQVSLTCLVKGFYPSDIAVEWESNGQPENNYKTTPPVLDSDGSFFLYSKLTVDKSRWQQGNVFSCSVLHEALHYHYTQKSLSLSP
light: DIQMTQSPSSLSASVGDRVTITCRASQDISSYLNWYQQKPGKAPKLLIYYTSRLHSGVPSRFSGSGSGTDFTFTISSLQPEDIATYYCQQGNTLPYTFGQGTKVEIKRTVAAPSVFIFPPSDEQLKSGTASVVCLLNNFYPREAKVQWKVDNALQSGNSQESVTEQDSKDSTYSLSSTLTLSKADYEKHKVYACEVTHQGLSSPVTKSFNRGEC
notes: VH3-IgG1-F157 with S239K (EU); measured with L(WT)-CK; also called Fv4-IgG1-F424; copies: 2 + 2
